Columns and labels:
[1] = target: human CI-M6PR on K562 cells (human) (UniProt P11717); assay: cell-based or functional assay
[2] = target: human CI-M6PR on K562 cells (human) (UniProt P11717); assay: flow cytometry, cell surface stain, M6PR-KO K562 cells, Alexa 647
[3] = target: human CI-M6PR on K562 cells (human) (UniProt P11717); assay: flow cytometry, cell surface stain, wild type K562 cells, Alexa 647
[4] = target: human CI-M6PR on K562 cells (human) (UniProt P11717); assay: flow cytometry dot plot, cell surface stain, M6PR-KO K562 cells [Cont. 2]
[5] = target: human CI-M6PR on K562 cells (human) (UniProt P11717); assay: flow cytometry dot plot, intracellular stain, M6PR-KO K562 cells [Cont. 2]
[6] = target: human CI-M6PR on K562 cells (human) (UniProt P11717); assay: flow cytometry dot plot, cell surface stain, wild type K562 cells [Cont. 1]
[7] = target: human CI-M6PR on K562 cells (human) (UniProt P11717); assay: flow cytometry dot plot, intracellular stain, wild type K562 cells [Cont. 1]
[8] = target: human CI-M6PR on K562 cells (human) (UniProt P11717); assay: flow cytometry, intracellular stain (fixed, permeabilized), M6PR-KO K562 cells, Alexa 647
[9] = target: human CI-M6PR on K562 cells (human) (UniProt P11717); assay: flow cytometry, intracellular stain (fixed, permeabilized), wild type K562 cells, Alexa 647

Chain of human CI-M6PR on K562 cells (human) (P11717 41-2491): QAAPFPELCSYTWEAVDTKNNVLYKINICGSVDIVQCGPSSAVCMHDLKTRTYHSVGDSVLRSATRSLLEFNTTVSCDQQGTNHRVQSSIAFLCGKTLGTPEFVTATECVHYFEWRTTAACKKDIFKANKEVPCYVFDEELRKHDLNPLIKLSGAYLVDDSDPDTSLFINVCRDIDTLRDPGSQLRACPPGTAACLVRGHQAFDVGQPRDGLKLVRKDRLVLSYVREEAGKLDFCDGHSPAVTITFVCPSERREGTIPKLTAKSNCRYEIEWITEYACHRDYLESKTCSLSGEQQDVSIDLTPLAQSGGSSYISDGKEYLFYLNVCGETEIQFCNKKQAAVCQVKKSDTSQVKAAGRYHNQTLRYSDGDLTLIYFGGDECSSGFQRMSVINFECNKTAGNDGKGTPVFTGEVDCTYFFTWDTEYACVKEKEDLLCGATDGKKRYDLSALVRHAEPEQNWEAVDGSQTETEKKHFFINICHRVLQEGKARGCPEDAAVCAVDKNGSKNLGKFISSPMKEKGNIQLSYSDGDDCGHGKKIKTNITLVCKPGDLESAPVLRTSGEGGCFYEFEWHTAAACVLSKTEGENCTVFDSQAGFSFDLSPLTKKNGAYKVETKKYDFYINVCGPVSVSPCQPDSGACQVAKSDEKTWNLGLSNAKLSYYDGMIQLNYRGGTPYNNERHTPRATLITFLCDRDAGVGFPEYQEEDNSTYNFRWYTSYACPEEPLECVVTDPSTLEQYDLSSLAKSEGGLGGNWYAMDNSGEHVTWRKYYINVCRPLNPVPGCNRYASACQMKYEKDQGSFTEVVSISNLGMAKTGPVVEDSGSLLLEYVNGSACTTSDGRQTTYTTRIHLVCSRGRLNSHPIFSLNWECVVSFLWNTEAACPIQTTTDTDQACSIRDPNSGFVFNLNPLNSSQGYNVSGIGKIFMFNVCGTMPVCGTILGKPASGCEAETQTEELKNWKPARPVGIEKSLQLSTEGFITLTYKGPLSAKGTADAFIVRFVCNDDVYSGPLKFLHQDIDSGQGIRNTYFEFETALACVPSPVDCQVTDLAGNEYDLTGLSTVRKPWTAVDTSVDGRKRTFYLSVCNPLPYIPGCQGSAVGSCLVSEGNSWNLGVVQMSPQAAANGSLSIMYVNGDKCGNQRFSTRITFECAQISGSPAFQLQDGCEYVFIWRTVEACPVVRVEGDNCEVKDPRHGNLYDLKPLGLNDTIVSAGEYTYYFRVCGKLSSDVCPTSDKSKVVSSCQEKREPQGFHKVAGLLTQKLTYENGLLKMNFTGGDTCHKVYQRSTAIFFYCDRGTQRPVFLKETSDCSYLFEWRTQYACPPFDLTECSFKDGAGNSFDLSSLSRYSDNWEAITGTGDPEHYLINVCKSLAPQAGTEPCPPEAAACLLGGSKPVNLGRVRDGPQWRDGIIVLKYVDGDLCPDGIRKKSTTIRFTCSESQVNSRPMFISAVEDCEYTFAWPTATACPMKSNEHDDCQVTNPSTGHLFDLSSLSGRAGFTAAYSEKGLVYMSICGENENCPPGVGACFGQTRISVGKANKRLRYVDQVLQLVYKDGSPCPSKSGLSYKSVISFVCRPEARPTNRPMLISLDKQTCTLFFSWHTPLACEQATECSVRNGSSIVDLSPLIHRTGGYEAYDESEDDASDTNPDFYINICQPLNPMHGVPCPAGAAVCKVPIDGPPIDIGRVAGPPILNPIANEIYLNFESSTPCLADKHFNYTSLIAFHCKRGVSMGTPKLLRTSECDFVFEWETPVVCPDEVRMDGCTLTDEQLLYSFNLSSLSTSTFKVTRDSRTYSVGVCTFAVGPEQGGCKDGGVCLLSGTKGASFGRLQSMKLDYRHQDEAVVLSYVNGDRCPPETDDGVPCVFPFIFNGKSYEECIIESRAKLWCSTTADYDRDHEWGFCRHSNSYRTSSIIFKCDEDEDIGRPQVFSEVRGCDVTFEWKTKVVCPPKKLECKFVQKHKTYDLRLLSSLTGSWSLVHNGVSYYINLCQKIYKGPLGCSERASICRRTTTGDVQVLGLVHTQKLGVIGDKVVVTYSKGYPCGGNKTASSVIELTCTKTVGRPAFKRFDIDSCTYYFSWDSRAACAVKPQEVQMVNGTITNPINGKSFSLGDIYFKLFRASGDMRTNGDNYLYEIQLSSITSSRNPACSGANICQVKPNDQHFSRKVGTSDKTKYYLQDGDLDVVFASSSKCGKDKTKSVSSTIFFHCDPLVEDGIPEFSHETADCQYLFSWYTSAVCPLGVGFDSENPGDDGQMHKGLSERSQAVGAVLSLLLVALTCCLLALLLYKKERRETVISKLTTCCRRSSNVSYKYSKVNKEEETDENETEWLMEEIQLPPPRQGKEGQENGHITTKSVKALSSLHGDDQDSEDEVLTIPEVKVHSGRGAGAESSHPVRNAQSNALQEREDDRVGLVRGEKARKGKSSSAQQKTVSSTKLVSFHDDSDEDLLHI
Chain of KLH-IGF2 (P01344 25-91): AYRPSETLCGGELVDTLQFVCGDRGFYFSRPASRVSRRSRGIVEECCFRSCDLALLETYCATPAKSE

Row | Uptake pHrodo (MFI) [1] [MFI] | Median : FL18-A on M6PR-KO K562 cells (target knocked out, control) [2] | Median : FL18-A [3] | Q1 on M6PR-KO K562 cells (target knocked out, control) [4] [%] | Q1 on M6PR-KO K562 cells (target knocked out, control) [5] [%] | Q1 (events above the Alexa 647 gate, below the FITC gate) [6] | Q1 (events above the Alexa 647 gate, below the FITC gate) [7] | Median : FL18-A on M6PR-KO K562 cells (target knocked out, control) [8] | Median : FL18-A [9] | Substance
1 | 210000 |  |  |  |  |  |  |  |  | KLH-IGF2 (from UniProt P01344 25-91)
2 |  | 14.9 | 15.7 | 1.47 | 0.39 | 0.39 | 0.48 | 35.3 | 48.4 | IgG1-647 (antibody)
3 |  | 27.7 | 1280 | 13.1 | 86.8 | 99.2 | 99.5 | 220 | 3630 | MEM-238-647 (antibody)
